Source: paper PMC9078203
Like-named read-outs stand apart in the source and are kept apart here.

Legend:
[1] = target: DIP-α G74A (D. melanogaster) (UniProt Q9W4R3); test: AUC
[2] = target: DIP-α K81Q (D. melanogaster) (UniProt Q9W4R3); test: AUC
[3] = target: DIP-α K81Q G74S (D. melanogaster) (UniProt Q9W4R3); test: AUC
[4] = target: DIP-γ (D. melanogaster); test: SPR
[5] = target: DIP-α G74A (D. melanogaster) (UniProt Q9W4R3); test: SPR
[6] = target: DIP-α K81Q G74S (D. melanogaster) (UniProt Q9W4R3); test: SPR
[7] = target: DIP-β (D. melanogaster); test: SPR
[8] = target: DIP-α K81Q (D. melanogaster) (UniProt Q9W4R3); test: SPR
[9] = target: DIP-α (D. melanogaster) (UniProt Q9W4R3); test: SPR
[10] = target: DIP-α (D. melanogaster) (UniProt Q9W4R3); test: SPR; remark: listed apart in the source

With “DIP-α G74A (from UniProt Q9W4R3 1-554) (natural protein)” as the substance, how does the Kd [1] read?
Its Kd is 50 µM.

And the stoichiometry N [1]?
The stoichiometry N was 2.

For “DIP-α K81Q (from UniProt Q9W4R3 1-554) (natural protein)”, which Kd [2] is on record?
Its Kd is 19.6 µM.

What about the stoichiometry N [2] of the same substance?
The stoichiometry N was 2.

For “DIP-α K81Q G74S (from UniProt Q9W4R3 1-554) (natural protein)”, which Kd [3] is on record?
Its Kd is 46 µM.

What about the stoichiometry N [3] of the same substance?
The stoichiometry N was 2.

“Dpr10 (from UniProt Q9VT83 1-408) (natural protein)” was tested. Which Kd [4] did it give?
The Kd was > 1000 µM.

And the Kd [5]?
The Kd was 0.9 µM.

What about the Kd [6] of the same substance?
The Kd was 68 µM.

And the Kd [7]?
The Kd was 33 µM.

And the Kd [8]?
The Kd was 31.8 µM.

What does the source list for “Dpr10 Q138D (from UniProt Q9VT83 1-408) (natural protein)”?
Kd [9]: 27.8 µM; Kd [10]: 27.6 µM

For “Dpr10 Q142M (from UniProt Q9VT83 1-408) (natural protein)”, which Kd [10] is on record?
Its Kd is 0.19 µM.

And the Kd [5]?
The Kd was 0.1 µM.

“Dpr10 V144K (from UniProt Q9VT83 1-408) (natural protein)” was tested. Which Kd [10] did it give?
Its Kd is 11.3 µM.

Which Kd [10] does the source give for “Dpr10 V144K Q142E G99D (from UniProt Q9VT83 1-408) (natural protein)” here?
Its Kd is 50 µM.
